# T1: Ets1 280-441 (UniProt P14921 280-441)
# T1 sequence: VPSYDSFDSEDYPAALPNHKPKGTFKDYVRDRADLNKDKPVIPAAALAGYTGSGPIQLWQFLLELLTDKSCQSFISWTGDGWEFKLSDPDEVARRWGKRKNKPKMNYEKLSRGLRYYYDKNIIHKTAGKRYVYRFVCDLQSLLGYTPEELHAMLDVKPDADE
# Biological target: T1, Ets1 280-441
# Assay: X-ray crystallography
binder,measurement,value
"stromelysin-1 EBS palindrome, crystal duplex (dsDNA) DNA 1: CAGGAAGCACTTCCTG DNA 2: GCAGGAAGTGCTTCCT",binding result,binds

# — PMC2928650
